Percent of the ADRM1 signal associated with 19S data for one substance are collected here from publication doi:10.1101/2020.05.06.080465.

The assay concerns the target 19S proteasomal subunit (human (endogenous in HeLa)). Briefly: SEC. (SEC sorts molecules by how far they enter the pores of the column.)

In turn, “ubiquitin receptor ADRM1 (from UniProt Q16186 1-407) (natural protein)” gave a percent of the ADRM1 signal associated with 19S of 15%.
